# B1: Protein S100-G wild type, P02633 (protein)
# chain: MSAKKSPEELKGIFEKYAAKEGDPNQLSKEELKLLLQTEFPSLLKGPSTLDELFEELDKNGDGEVSFEEFQVLVKKISQ
# Conditions: Bos taurus; pH 7; 25 °C; Urea; CD; PIPES-KOH 20 mM; reversible: yes; whole UniProt chain shown
protein,measurement,value
B1,denaturant midpoint (higher = more stable),5.3 M
same,unfolding free energy,0.29 kcal/mol
